How the values were obtained:
Format in all cases: in vivo
[1] = tested on: transgenic soybean plants; experiment: oxyfluorfen tolerance of transgenic soybean plants (spray, grade of pesticide damage); details: for The grade of pesticide damage/plant: grade 0 / The grade of pesticide damage/plant: grade 1 / The grade of pesticide damage/plant: grade 2 / The grade of pesticide damage/plant: grade 3: 7 DAT, number of plants of 16 per genotype, grades; for tolerance to oxyfluorfen: soybean
[2] = tested on: Arabidopsis thaliana T1 plants; experiment: flumioxazin tolerance of transgenic Arabidopsis thaliana T1 plants (spray, grade of pesticide damage); details: 7 DAT, number of plants of 24 per genotype, grades
How it was run: (§1)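 T1 Arabidopsis (PPO constructs; glufosinate-selected) + vector and WT controls, n=24/genotype, d18 post-sowing. Spray 1×/higher field rate or water: saflufenacil 25/100, sulfentrazone 450/900, flumioxazin 60/240, oxyfluorfen 180/720 g ai/ha. Score 7 DAT, grades 0–3 by injured leaf area.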

[3] = tested on: Arabidopsis thaliana T1 plants; experiment: sulfentrazone tolerance of transgenic Arabidopsis thaliana T1 plants (spray, grade of pesticide damage); details: 7 DAT, number of plants of 24 per genotype, grades
How it was run: as §1

[4] = tested on: Arabidopsis thaliana T1 plants; experiment: saflufenacil tolerance of transgenic Arabidopsis thaliana T1 plants (spray, grade of pesticide damage); details: 7 DAT, number of plants of 24 per genotype, grades
How it was run: as §1

[5] = tested on: transgenic soybean plants; experiment: saflufenacil tolerance of transgenic soybean plants (spray, grade of pesticide damage); parameters: key to damage levels rated at grade: grade 0 means that the growth status of plants is essentially consistent with those sprayed with the blank solvent (water); grade 1 means that the average of the damage levels of plants is less than 10%; grade 2 means that the average of the damage levels of plants is greater than 100%; grade 3 means that the average of the damage levels of plants is 100%; details: for The grade of pesticide damage/plant: grade 0 / The grade of pesticide damage/plant: grade 1 / The grade of pesticide damage/plant: grade 2 / The grade of pesticide damage/plant: grade 3: 7 DAT, number of plants of 16 per genotype, grades
[6] = tested on: Arabidopsis thaliana T1 plants; experiment: oxyfluorfen tolerance of transgenic Arabidopsis thaliana T1 plants (spray, grade of pesticide damage); details: 7 DAT, number of plants of 24 per genotype, grades
How it was run: as §1

[7] = tested on: transgenic soybean plants; experiment: flumioxazin tolerance of transgenic soybean plants (spray, grade of pesticide damage); details: for The grade of pesticide damage/plant: grade 0 / The grade of pesticide damage/plant: grade 1 / The grade of pesticide damage/plant: grade 2 / The grade of pesticide damage/plant: grade 3: 7 DAT, number of plants of 16 per genotype, grades

B1: PPO12A: nucleotide sequence encoding microbial protoporphyrinogen oxidase PPO12 (SEQ ID NO:12), Arabidopsis thaliana/soybean common codon usage bias (nucleic acid)
DNA: ATGAAGAAAGCTCTTTTCCTGTACAGCTCGAGAGAAGGCCAGACAAAAAAGATTCTCAACTACATAGAAGGAGAGTTATCAAATTTTGAATGTGAATTGGTTGACCTTCACACGCTTGATGCTATTGATTTCTCCGTCTATGATCGGGTGCTCATTGGTGCTTCTATACGATATGGTCATTTGAACAAGAAGCTTTATCAGTTTATAGAGAACAACAGACAACAACTAGAGAATCATACCAAAGTTGCCTTCTTCTGCGTCAATCTTACTGCAAGGAAAGAAGATCAAGGAAAAGACACTCCTGAGGGGAGTGTTTACATCCAGAAATTTCTCAAGAAATCACCATGGCAACCGAAGTTGATTGGAGTTTTCGCGGGGGCATTATACTACCCTCGTTATGGATTCTTTGATAAGATGATGATCAAACTCATCATGACTTTAACTGATGGTGAAACCGACACAACAAAGGAAGTGGAGTATACAAATTGGAAAAAAGTATCTTTGTTTGCAAAGAAGTTTGCTGAGCTGTGA
modifications: The nucleotide sequence of PPO12A
[1]; oxyfluorfen 360 g ai/ha (2×)
  The grade of pesticide damage/plant: grade 0: 16 plant
  The grade of pesticide damage/plant: grade 1: 0 plant
  The grade of pesticide damage/plant: grade 2: 0 plant
  The grade of pesticide damage/plant: grade 3: 0 plant
[1]; oxyfluorfen 720 g ai/ha (4×)
  The grade of pesticide damage/plant: grade 0: 16 plant
  The grade of pesticide damage/plant: grade 1: 0 plant
  The grade of pesticide damage/plant: grade 2: 0 plant
  The grade of pesticide damage/plant: grade 3: 0 plant
[1]; oxyfluorfen at four-fold field concentration (720 g ai/ha)
  tolerance to oxyfluorfen: high-resistant tolerance
[1]; oxyfluorfen at two-fold field concentration (360 g ai/ha)
  tolerance to oxyfluorfen: high-resistant tolerance
[2]; flumioxazin 60 g ai/ha (1×)
  The grade of pesticide damage/plant: grade 0: 24 plant
  The grade of pesticide damage/plant: grade 1: 0 plant
  The grade of pesticide damage/plant: grade 2: 0 plant
  The grade of pesticide damage/plant: grade 3: 0 plant
[2]; flumioxazin 240 g ai/ha (4×)
  The grade of pesticide damage/plant: grade 0: 24 plant
  The grade of pesticide damage/plant: grade 1: 0 plant
  The grade of pesticide damage/plant: grade 2: 0 plant
  The grade of pesticide damage/plant: grade 3: 0 plant
[3]; sulfentrazone 450 g ai/ha (1×)
  The grade of pesticide: grade 0: 24
  The grade of pesticide: grade 1: 0
  The grade of pesticide: grade 2: 0
  The grade of pesticide: grade 3: 0
[3]; sulfentrazone 900 g ai/ha (2×)
  The grade of pesticide: grade 0: 23
  The grade of pesticide: grade 1: 1
  The grade of pesticide: grade 2: 0
  The grade of pesticide: grade 3: 0
[4]; saflufenacil 25 g ai/ha (1×)
  The grade of pesticide damage/plant: grade 0: 24 plant
  The grade of pesticide damage/plant: grade 1: 0 plant
  The grade of pesticide damage/plant: grade 2: 0 plant
  The grade of pesticide damage/plant: grade 3: 0 plant
[4]; saflufenacil 100 g ai/ha (4×)
  The grade of pesticide damage/plant: grade 0: 0 plant
  The grade of pesticide damage/plant: grade 1: 24 plant
  The grade of pesticide damage/plant: grade 2: 0 plant
  The grade of pesticide damage/plant: grade 3: 0 plant
[5]; saflufenacil 50 g ai/ha (2×)
  The grade of pesticide damage/plant: grade 0: 16 plant
  The grade of pesticide damage/plant: grade 1: 0 plant
  The grade of pesticide damage/plant: grade 2: 0 plant
  The grade of pesticide damage/plant: grade 3: 0 plant
[5]; saflufenacil 100 g ai/ha (4×)
  The grade of pesticide damage/plant: grade 0: 16 plant
  The grade of pesticide damage/plant: grade 1: 0 plant
  The grade of pesticide damage/plant: grade 2: 0 plant
  The grade of pesticide damage/plant: grade 3: 0 plant
[5]; soybean, saflufenacil at four-fold field concentration (100 g ai/ha)
  tolerance to saflufenacil: high-resistant tolerance
[5]; soybean, saflufenacil at two-fold field concentration (50 g ai/ha)
  damage levels rated at grade: 0
[5]; soybean, saflufenacil, compared with the control vector and CK
  tolerance to saflufenacil: different extents of tolerance
[6]; oxyfluorfen 180 g ai/ha (1×)
  The grade of pesticide damage/plant: grade 0: 24 plant
  The grade of pesticide damage/plant: grade 1: 0 plant
  The grade of pesticide damage/plant: grade 2: 0 plant
  The grade of pesticide damage/plant: grade 3: 0 plant
[6]; oxyfluorfen 720 g ai/ha (4×)
  The grade of pesticide damage/plant: grade 0: 20 plant
  The grade of pesticide damage/plant: grade 1: 4 plant
  The grade of pesticide damage/plant: grade 2: 0 plant
  The grade of pesticide damage/plant: grade 3: 0 plant
[7]; flumioxazin 120 g ai/ha (2×)
  The grade of pesticide damage/plant: grade 0: 16 plant
  The grade of pesticide damage/plant: grade 1: 0 plant
  The grade of pesticide damage/plant: grade 2: 0 plant
  The grade of pesticide damage/plant: grade 3: 0 plant
[7]; flumioxazin 240 g ai/ha (4×)
  The grade of pesticide damage/plant: grade 0: 16 plant
  The grade of pesticide damage/plant: grade 1: 0 plant
  The grade of pesticide damage/plant: grade 2: 0 plant
  The grade of pesticide damage/plant: grade 3: 0 plant
[7]; soybean, flumioxazin at different concentrations (120 and 240 g ai/ha)
  tolerance to flumioxazin: high-resistant tolerance
